# Experimental data as given in IntAct's records for PubMed 31515488.
# B1: U3 small nucleolar RNA-associated protein 14 homolog C (Homo sapiens), Q5TAP6 (parent)
# chain: MNVNQVAENLALSHQEELVDLPKNYPLSENEDEGDSDGERKHQKLLEAIISLDGKNRRKLAERSEASLKVSEFSVSSEGSGEKLGLADLLEPVKTSSSLATVKKQLNRVKSKKVVELPLNKEKIEQIHREVAFSKTSQVLSKWDPIILKNQQAEQLVFPLGKEQPAIAPIEHALSGWKARTPLEQEIFNLLHKNKQPVTDPLLTPMEKASLQAMSLEEAKMHRAELQRARALQSYYEAKARKEKKIKSKKYHKVVKKGKAKKALKEFEQLQKVNPTVALEEMEKIENARMMERMSLKHQNSGKWAKSKAIMAKYDLEARQAMQEQLAKNKELTQKLQVASESEEEEGGTEVEELLVPHVANEVQMNVDGPNPWMFRSCTSDTKEAATQEDPEQVPELAAHEVSASEAEERPVAEEEILLREFEERQSLRKRSELNQDAEPASSQETKDSSSQEVLSELRALSQKLKEKHQSRKQKASSEGTVPQVQREEPAPEEAEPLLLQRSERVQTLEELEELGKEDCFQNKELPRPVLEGQQSERTPNNRPDAPKEKKEKEQLINLQNFLTTQSPSVRSLAVPTIIEELEDEEERDQRQMIKEAFAGDDVIRDFLKEKREAVEASKPKDVDLTLPGWGEWGGVGLKPSAKKRRQFLIKAPEGPPRKDKNLPNVIISEKRNIHAAAHQVQVLPYPFTHHRQFERTIQTPIGSTWNTQRAFQKLTTPKVVTKPGHIIKPIKAEDVGYQSSSRSDLPVIQRNPKRITTRHNKEEKL
# B2: Proto-oncogene serine/threonine-protein kinase mos (Homo sapiens), P00540 (parent)
# chain: MPSPLALRPYLRSEFSPSVDARPCSSPSELPAKLLLGATLPRAPRLPRRLAWCSIDWEQVCLLQRLGAGGFGSVYKATYRGVPVAIKQVNKCTKNRLASRRSFWAELNVARLRHDNIVRVVAASTRTPAGSNSLGTIIMEFGGNVTLHQVIYGAAGHPEGDAGEPHCRTGGQLSLGKCLKYSLDVVNGLLFLHSQSIVHLDLKPANILISEQDVCKISDFGCSEKLEDLLCFQTPSYPLGGTYTHRAPELLKGEGVTPKADIYSFAITLWQMTTKQAPYSGERQHILYAVVAYDLRPSLSAAVFEDSLPGQRLGDVIQRCWRPSAAQRPSARLLLVDLTSLKAELG
# partner: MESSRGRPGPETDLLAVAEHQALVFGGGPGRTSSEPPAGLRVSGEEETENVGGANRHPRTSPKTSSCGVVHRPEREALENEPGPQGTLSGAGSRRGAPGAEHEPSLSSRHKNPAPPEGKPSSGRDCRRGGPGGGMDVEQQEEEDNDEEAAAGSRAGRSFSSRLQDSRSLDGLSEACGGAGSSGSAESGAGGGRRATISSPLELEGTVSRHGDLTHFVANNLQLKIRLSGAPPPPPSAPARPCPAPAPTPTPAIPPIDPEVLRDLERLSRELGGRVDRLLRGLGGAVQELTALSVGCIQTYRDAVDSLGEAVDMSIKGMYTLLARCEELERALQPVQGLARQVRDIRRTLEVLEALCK
# B3: Zinc finger CCCH-type with G patch domain-containing protein (Homo sapiens), Q8N5A5 (parent)
# chain: MDEESLESALQTYRAQLQQVELALGAGLDSSEQADLRQLQGDLKELIELTEASLVSVRKSSLLAALDEERPGRQEDAEYQAFREAITEAVEAPAAARGSGSETVPKAEAGPESAAGGQEEEEGEDEEELSGTKVSAPYYSSWGTLEYHNAMVVGTEEAEDGSAGVRVLYLYPTHKSLKPCPFFLEGKCRFKENCRFSHGQVVSLDELRPFQDPDLSSLQAGSACLAKHQDGLWHAARITDVDNGYYTVKFDSLLLREAVVEGDGILPPLRTEATESDSDSDGTGDSSYARVVGSDAVDSAQSSALCPSLAVVGSDAVDSGTCSSAFAGWEVHTRGIGSRLLTKMGYEFGKGLGRHAEGRVEPIHAVVLPRGKSLDQCVETLQKQTRVGKAGTNKPPRCRGRGARPGGRPAPRNVFDFLNEKLQGQAPGALEAGAAPAGRRSKDMYHASKSAKRALSLRLFQTEEKIERTQRDIRSIQEALARNAGRHSVASAQLQEKLAGAQRQLGQLRAQEAGLQQEQRKADTHKKMTEF
# partner: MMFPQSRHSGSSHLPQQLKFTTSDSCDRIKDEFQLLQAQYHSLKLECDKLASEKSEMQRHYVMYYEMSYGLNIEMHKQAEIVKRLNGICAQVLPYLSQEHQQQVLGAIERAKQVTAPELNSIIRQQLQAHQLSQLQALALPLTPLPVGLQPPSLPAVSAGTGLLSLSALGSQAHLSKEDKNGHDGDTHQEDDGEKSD
# B4: Synaptotagmin-like protein 5 (Homo sapiens), Q8TDW5 (parent)
# chain: MSKNSEFINLSFLLDHEKEMILGVLKRDEYLKKVEDKRIRKLKNELLEAKRRSGKTQQEASRVCVHCHRNLGLIFDRGDPCQACSLRVCRECRVAGPNGSWKCTVCDKIAQLRIITGEWFFEEKAKRFKQVNVLGTDVVRQSILRRSPGAEEVQSQEQTRQDAEKSDTSPVAGKKASHDGPKRKGFLLSKFRSATRGEIITPKTDTGRSYSLDLDGQHFRSLKSPPGSDRGSTGSSDLNDQEPGPRTPKSSRSNGVTPGTQSSPAPSTRTVTSVISREYGFENSMDLAAIEGTSQELTKSHRRNTSGTPSIAVSGTSLSSDQSRSELDLSESFTEDSEDTVSIRSKSVPGALDKDSLEETEESIDALVSSQLSTNTHRLASGLSTTSLNSMMSVYSETGDYGNVKVSGEILLHISYCYKTGGLYIFVKNCRNLAIGDEKKQRTDAYVKSYLLPDKSRNNKRKTKIRTGTNPEFNETLKYTISHTQLETRTLQLSVWHYDRFGRNSFLGEVEIPFDSWNFENPTDEWFVLQPKVEFAPDIGLQYKGELTVVLRYIPPEENLMLPPEQLQGNKTFKKGKKKESPVISGGILEVFIKEAKNLTAVKSGGTSDSFVKGYLLPDDSKATKHKTLVIKKSVNPQWNHTFMFSGIHPQDIKNVCLELTIWDKEAFSSNIFLGGVRLNSGSGVSHGKNVDWMDSQGEEQRLWQKMANNPGTPFEGVLMLRSSMGKCRL
# partner: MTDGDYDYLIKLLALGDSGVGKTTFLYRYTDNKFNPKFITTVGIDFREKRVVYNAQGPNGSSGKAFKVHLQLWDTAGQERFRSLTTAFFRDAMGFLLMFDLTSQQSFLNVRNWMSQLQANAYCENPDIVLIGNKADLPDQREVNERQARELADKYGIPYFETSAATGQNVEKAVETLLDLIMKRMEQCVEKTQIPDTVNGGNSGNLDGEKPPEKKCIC
# B5: Golgin-45 (Homo sapiens), Q9H2G9 (parent)
# chain: MTTKNLETKVTVTSSPIRGAGDGMETEEPPKSVEVTSGVQSRKHHSLQSPWKKAVPSESPGVLQLGKMLTEKAMEVKAVRILVPKAAITHDIPNKNTKVKSLGHHKGEFLGQSEGVIEPNKELSEVKNVLEKLKNSERRLLQDKEGLSNQLRVQTEVNRELKKLLVASVGDDLQYHFERLAREKNQLILENEALGRNTAQLSEQLERMSIQCDVWRSKFLASRVMADELTNSRAALQRQNRDAHGAIQDLLSEREQFRQEMIATQKLLEELLVSLQWGREQTYSPSVQPHSTAELALTNHKLAKAVNSHLLGNVGINNQKKIPSTVEFCSTPAEKMAETVLRILDPVTCKESSPDNPFFESSPTTLLATKKNIGRFHPYTRYENITFNCCNHCRGELIAL
# partner: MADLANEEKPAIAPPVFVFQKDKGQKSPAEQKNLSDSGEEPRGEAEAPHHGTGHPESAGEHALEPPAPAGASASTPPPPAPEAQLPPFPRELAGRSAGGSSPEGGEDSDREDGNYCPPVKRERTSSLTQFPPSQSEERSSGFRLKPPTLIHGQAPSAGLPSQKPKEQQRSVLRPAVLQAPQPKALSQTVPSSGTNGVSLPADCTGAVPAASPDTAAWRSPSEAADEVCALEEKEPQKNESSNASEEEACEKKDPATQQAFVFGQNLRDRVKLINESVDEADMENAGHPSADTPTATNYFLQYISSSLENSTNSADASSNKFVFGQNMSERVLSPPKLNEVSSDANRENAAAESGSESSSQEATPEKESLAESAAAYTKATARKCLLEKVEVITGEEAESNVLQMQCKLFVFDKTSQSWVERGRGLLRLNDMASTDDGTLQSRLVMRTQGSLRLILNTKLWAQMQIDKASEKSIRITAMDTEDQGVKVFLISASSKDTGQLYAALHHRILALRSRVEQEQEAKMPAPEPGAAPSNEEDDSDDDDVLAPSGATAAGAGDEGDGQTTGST
# B6: TNF receptor-associated factor 1 (Homo sapiens), Q13077 (parent)
# chain: MASSSGSSPRPAPDENEFPFGCPPTVCQDPKEPRALCCAGCLSENPRNGEDQICPKCRGEDLQSISPGSRLRTQEKAHPEVAEAGIGCPFAGVGCSFKGSPQSVQEHEVTSQTSHLNLLLGFMKQWKARLGCGLESGPMALEQNLSDLQLQAAVEVAGDLEVDCYRAPCSESQEELALQHFMKEKLLAELEGKLRVFENIVAVLNKEVEASHLALATSIHQSQLDRERILSLEQRVVELQQTLAQKDQALGKLEQSLRLMEEASFDGTFLWKITNVTRRCHESACGRTVSLFSPAFYTAKYGYKLCLRLYLNGDGTGKRTHLSLFIVIMRGEYDALLPWPFRNKVTFMLLDQNNREHAIDAFRPDLSSASFQRPQSETNVASGCPLFFPLSKLQSPKHAYVKDDTMFLKCIVETST
# Variants of: B1
# Conditions: with myome_human PDE4DIP
row,Variant,effect of a mutation on the interaction
1,R672H,with no effect
2,A652T,with no effect
3,V109D,with no effect
4,K247E,with no effect
5,I170V,with no effect

# Variants of: B2
# Conditions: with borc6_human BORCS6, Q96GS4
row,Variant,effect of a mutation on the interaction
1,A105S,with no effect
2,A123T,disrupting interaction strength

# Variants of: B3
# Conditions: with tle5_human TLE5, Q08117
row,Variant,effect of a mutation on the interaction
1,S61R,with no effect

# Variants of: B4
# Conditions: with rb27b_human RAB27B
row,Variant,effect of a mutation on the interaction
1,R160H,with no effect

# Variants of: B5
# Conditions: with ranb3_human RANBP3, Q9H6Z4
row,Variant,effect of a mutation on the interaction
1,H45R,with no effect
2,Q40R,with no effect

# Variants of: B6
# Conditions: with traf2_human TRAF2, Q12933
# Chain of traf2_human TRAF2, Q12933 (Q12933 whole entry): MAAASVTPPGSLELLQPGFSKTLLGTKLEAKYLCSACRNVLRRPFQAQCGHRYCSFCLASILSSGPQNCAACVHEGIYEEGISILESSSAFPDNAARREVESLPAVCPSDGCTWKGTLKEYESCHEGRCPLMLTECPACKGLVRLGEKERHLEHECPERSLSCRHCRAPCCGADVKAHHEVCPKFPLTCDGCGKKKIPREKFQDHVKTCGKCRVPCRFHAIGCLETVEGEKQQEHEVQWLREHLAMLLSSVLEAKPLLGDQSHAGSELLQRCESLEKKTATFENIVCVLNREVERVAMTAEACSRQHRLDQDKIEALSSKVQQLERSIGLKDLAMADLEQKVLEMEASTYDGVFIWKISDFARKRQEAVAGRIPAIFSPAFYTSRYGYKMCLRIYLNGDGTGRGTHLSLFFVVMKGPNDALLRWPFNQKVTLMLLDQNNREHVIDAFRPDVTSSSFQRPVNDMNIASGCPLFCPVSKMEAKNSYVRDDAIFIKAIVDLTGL
row,Variant,effect of a mutation on the interaction
1,K193R,with no effect
